Source: patent US11015206B2, “Compositions and methods comprising sequences having hydroxyphenylpyruvate dioxygenase (HPPD) activity” (PIONEER HI-BRED INTERNATIONAL, INC., priority 2014, dated 2021)
Residue numbers refer to the chain shown, from its start. Values belong to the molecule of their own block, whether it stands above or below them.

How the values were obtained:
Assay type in all cases: biochemical, Z. mays
[1] = system: 4-hydroxyphenylpyruvate dioxygenase (HPPD); test: ON rate ratio: HPPD reaction rate with vs without inhibitor in the 70 to 90 second interval; settings: Table 7; tembotrione; combinatorial variants
Outline: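 Indicator of inhibitor on-rate: reaction velocity in the 70 to 90 second window with 4 μM inhibitor divided by that without. Reactions contained 100 μM HPP and 60 or 120 nM HPPD; slower binding gives a larger ratio.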

[2] = system: 4-hydroxyphenylpyruvate dioxygenase (HPPD); test: OFF rate ratio: release of inhibitor from pre-formed enzyme-inhibitor complex; settings: Table 7; tembotrione; combinatorial variants
Outline: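 Inhibitor release from pre-formed complex (enzyme 7.2 μM, inhibitor 8 μM, 1 h RT) tracked as accelerating HPPD activity at 320 nm over 12 min, coupled via 50 nM HGD with 100 μM HPP at pH 7. OFF rate ratio: steady-state velocity relative to uninhibited initial velocity.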

[3] = system: 4-hydroxyphenylpyruvate dioxygenase (HPPD); test: Insensitivity parameter (ON × OFF) and trait fitness (ON × OFF × kcat/KM or × kcat); parameters: key to ON × OFF / Insensitivity, mesotrione, ON × OFF / Insensitivity, tembotrione, ON × OFF / Insensitivity, topramezone, ON × OFF / Insensitivity, sulcotrione, ON × OFF / Insensitivity, isoxaflutole (DKN), ON × OFF: insensitivity = ON rate ratio × OFF rate ratio (surrogate for KD)
Outline: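 Trait fitness combines catalysis and insensitivity as kcat/KM × ON rate ratio × OFF rate ratio. The insensitivity parameter is the product of ON and OFF rate ratios, used in place of KD because the ON rate ratio is inverse.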

[4] = system: 4-hydroxyphenylpyruvate dioxygenase (HPPD); test: Estimate of kcat from initial rate at saturating hydroxyphenylpyruvate without inhibitor (ON rate ratio assay)
Outline: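 kcat was estimated from the initial reaction rate with known enzyme level (60 or 120 nM HPPD). Hydroxyphenylpyruvate was at a saturating 100 μM, with no inhibitor present.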

[5] = Table 7, tembotrione, combinatorial variants
[6] = Table 7, combinatorial variants

ON rate ratio [1]: 0.585 | OFF rate ratio [2]: 0.262 | ON × OFF ([3]; Megatable 3, shuffled variants): 0.153 | ON × OFF [3, 5]: 0.153
B1: P056028-E-07 (protein)
chain: MGPTPTATAAGAAVAAASAAEQAAFRLVGHRNFVRFNPRSDRFQTLAFHHVELWCADAASAAGRFSFALGVPLAARSDLSTGNSAHASLLLRSGSLSLLFTAPYAHGADAATAALPSFSAAAARRFAADHGLAVRAVALRVADAEDAFRASVAAGARPAFGPVDLGRGFRLAEVELYGDVVLRYVSYPDGAAGEPFLPGFEGVASPGAADLGLSRFDHIVGNVPELAPAAAYMAGFTGFHEFAEFTTEDVGTTESGLNSMALANNSENVLLPLNEPVHGTKRRSQIQTFLDHHGGPGVQHIALASDDVLRTLREMRARSAMGGFEFLPPPLSDYYDGVRRCAGDVLTEAQINECQELGVMVDRDDEGVLLQIFTKPVGDRPTFFLEIIQRIGCMEKDEKGQEYQKGGCGGFGKGNFQQLFKSIEDYEKSLEAKRAAAAATAQGS
modifications: Zea mays variant form created by artificial means.
ON × OFF × kcat ([3]; Megatable 3, shuffled variants): 3.08 | ON × OFF × kcat [3, 5]: 3.08 | kcat ([4]; Megatable 3, shuffled variants): 0.343 s⁻¹ | kcat [4, 6]: 0.343 s⁻¹

ON rate ratio [1]: 0.685 | OFF rate ratio [2]: 0.410 | ON × OFF ([3]; Megatable 3, shuffled variants): 0.281 | ON × OFF [3, 5]: 0.281
B2: P056028-E-08 (protein)
chain: B1 chain with L211Y, E356R, Q417G, R434Q
modifications: Zea mays variant form created by artificial means.
ON × OFF × kcat ([3]; Megatable 3, shuffled variants): 3.55 | ON × OFF × kcat [3, 5]: 3.55 | kcat ([4]; Megatable 3, shuffled variants): 0.21 s⁻¹ | kcat [4, 6]: 0.21 s⁻¹

ON rate ratio [1]: 0.735 | OFF rate ratio [2]: 0.322 | ON × OFF ([3]; Megatable 3, shuffled variants): 0.236 | ON × OFF [3, 5]: 0.236
B3: P056028-F-07 (protein)
chain: B1 chain with A191G, L211Y, R340K, Q417G, R434H
modifications: Zea mays variant form created by artificial means.
ON × OFF × kcat ([3]; Megatable 3, shuffled variants): 5.04 | ON × OFF × kcat [3, 5]: 5.04 | kcat ([4]; Megatable 3, shuffled variants): 0.357 s⁻¹ | kcat [4, 6]: 0.357 s⁻¹

ON rate ratio [1]: 0.705 | OFF rate ratio [2]: 0.377 | ON × OFF ([3]; Megatable 3, shuffled variants): 0.266 | ON × OFF [3, 5]: 0.266
B4: P056028-F-08 (protein)
chain: B1 chain with P158K, R340K, Q417G, R434Q
modifications: Zea mays variant form created by artificial means.
ON × OFF × kcat ([3]; Megatable 3, shuffled variants): 3.23 | ON × OFF × kcat [3, 5]: 3.23 | kcat ([4]; Megatable 3, shuffled variants): 0.202 s⁻¹ | kcat [4, 6]: 0.202 s⁻¹

ON rate ratio [1]: 0.752 | OFF rate ratio [2]: 0.248 | ON × OFF ([3]; Megatable 3, shuffled variants): 0.186 | ON × OFF [3, 5]: 0.186
B5: P056028-G-04 (protein)
chain: B1 chain with L385I, I387L, Q417G, R434Q
modifications: Zea mays variant form created by artificial means.
ON × OFF × kcat ([3]; Megatable 3, shuffled variants): 2.54 | ON × OFF × kcat [3, 5]: 2.54 | kcat ([4]; Megatable 3, shuffled variants): 0.227 s⁻¹ | kcat [4, 6]: 0.227 s⁻¹

ON rate ratio [1]: 0.739 | OFF rate ratio [2]: 0.305 | ON × OFF ([3]; Megatable 3, shuffled variants): 0.225 | ON × OFF [3, 5]: 0.225
B6: P056028-F-06 (protein)
chain: B1 chain with A191G, P206S, S214N, R340K, E356K, I387L, Q417G, R434Q
modifications: Zea mays variant form created by artificial means.
ON × OFF × kcat ([3]; Megatable 3, shuffled variants): 3.25 | ON × OFF × kcat [3, 5]: 3.25 | kcat ([4]; Megatable 3, shuffled variants): 0.242 s⁻¹ | kcat [4, 6]: 0.242 s⁻¹

ON rate ratio [1]: 0.607 | OFF rate ratio [2]: 0.259 | ON × OFF ([3]; Megatable 3, shuffled variants): 0.157 | ON × OFF [3, 5]: 0.157
B7: P056028-G-10 (protein)
chain: B1 chain with P158K, L211Y, L327P, R434Q
modifications: Zea mays variant form created by artificial means.
ON × OFF × kcat ([3]; Megatable 3, shuffled variants): 4.61 | ON × OFF × kcat [3, 5]: 4.61 | kcat ([4]; Megatable 3, shuffled variants): 0.488 s⁻¹ | kcat [4, 6]: 0.488 s⁻¹

ON rate ratio [1]: 0.726 | OFF rate ratio [2]: 0.291 | ON × OFF ([3]; Megatable 3, shuffled variants): 0.211 | ON × OFF [3, 5]: 0.211
B8: P056028-F-10 (protein)
chain: B1 chain with A191G, L211Y, S214N, R340K, Q417G, R434Q
modifications: Zea mays variant form created by artificial means.
ON × OFF × kcat ([3]; Megatable 3, shuffled variants): 2.89 | ON × OFF × kcat [3, 5]: 2.89 | kcat ([4]; Megatable 3, shuffled variants): 0.228 s⁻¹ | kcat [4, 6]: 0.228 s⁻¹

ON rate ratio [1]: 0.676 | OFF rate ratio [2]: 0.308 | ON × OFF ([3]; Megatable 3, shuffled variants): 0.208 | ON × OFF [3, 5]: 0.208
B9: P056028-E-09 (protein)
chain: B1 chain with A191G, P206Q, L211Y, R340K, Q417G, R434Q
modifications: Zea mays variant form created by artificial means.
ON × OFF × kcat ([3]; Megatable 3, shuffled variants): 3.10 | ON × OFF × kcat [3, 5]: 3.10 | kcat ([4]; Megatable 3, shuffled variants): 0.248 s⁻¹ | kcat [4, 6]: 0.248 s⁻¹

ON rate ratio [1]: 0.706 | OFF rate ratio [2]: 0.322 | ON × OFF ([3]; Megatable 3, shuffled variants): 0.228 | ON × OFF [3, 5]: 0.228
B10: P056028-F-11 (protein)
chain: B1 chain with A191G, L211Y, N265D, Q417G, R434Q
modifications: Zea mays variant form created by artificial means.
ON × OFF × kcat ([3]; Megatable 3, shuffled variants): 5.04 | ON × OFF × kcat [3, 5]: 5.04 | kcat ([4]; Megatable 3, shuffled variants): 0.368 s⁻¹ | kcat [4, 6]: 0.368 s⁻¹

ON rate ratio [1]: 0.738 | OFF rate ratio [2]: 0.491 | ON × OFF ([3]; Megatable 3, shuffled variants): 0.363 | ON × OFF [3, 5]: 0.363
B11: P056028-F-03 (protein)
chain: B1 chain with A191G, L211Y, L385I, M394T, Q417S, R434Q
modifications: Zea mays variant form created by artificial means.
ON × OFF × kcat ([3]; Megatable 3, shuffled variants): 4.73 | ON × OFF × kcat [3, 5]: 4.73 | kcat ([4]; Megatable 3, shuffled variants): 0.217 s⁻¹ | kcat [4, 6]: 0.217 s⁻¹

ON rate ratio [1]: 0.660 | OFF rate ratio [2]: 0.245 | ON × OFF ([3]; Megatable 3, shuffled variants): 0.161 | ON × OFF [3, 5]: 0.161
B12: P056028-F-04 (protein)
chain: B1 chain with L211Y, I387L, Q417G, R434Q
modifications: Zea mays variant form created by artificial means.
ON × OFF × kcat ([3]; Megatable 3, shuffled variants): 2.70 | ON × OFF × kcat [3, 5]: 2.70 | kcat ([4]; Megatable 3, shuffled variants): 0.278 s⁻¹ | kcat [4, 6]: 0.278 s⁻¹

ON rate ratio [1]: 0.761 | OFF rate ratio [2]: 0.304 | ON × OFF ([3]; Megatable 3, shuffled variants): 0.231 | ON × OFF [3, 5]: 0.231
B13: P056028-G-02 (protein)
chain: B1 chain with L211Y, M233V, Q417G, R434Q
modifications: Zea mays variant form created by artificial means.
ON × OFF × kcat ([3]; Megatable 3, shuffled variants): 5.30 | ON × OFF × kcat [3, 5]: 5.30 | kcat ([4]; Megatable 3, shuffled variants): 0.383 s⁻¹ | kcat [4, 6]: 0.383 s⁻¹

ON rate ratio [1]: 0.700 | OFF rate ratio [2]: 0.360 | ON × OFF ([3]; Megatable 3, shuffled variants): 0.252 | ON × OFF [3, 5]: 0.252
B14: P056028-F-09 (protein)
chain: B1 chain with P206Q, L211Y, I387L, Q417G, R434Q
modifications: Zea mays variant form created by artificial means.
ON × OFF × kcat ([3]; Megatable 3, shuffled variants): 4.30 | ON × OFF × kcat [3, 5]: 4.30 | kcat ([4]; Megatable 3, shuffled variants): 0.285 s⁻¹ | kcat [4, 6]: 0.285 s⁻¹

ON rate ratio [1]: 0.213 | OFF rate ratio [2]: 0.033 | ON × OFF ([3]; Megatable 3, shuffled variants): 0.007 | ON × OFF [3, 5]: 0.007
B15: Mz wt (protein)
chain: MGPTPTAAAAGAAVAAASAAEQAAFRLVGHRNFVRFNPRSDRFHTLAFHHVELWCADAASAAGRFSFGLGAPLAARSDLSTGNSAHASLLLRSGSLSFLFTAPYAHGADAATAALPSFSAAAARRFAADHGLAVRAVALRVADAEDAFRASVAAGARPAFGPVDLGRGFRLAEVELYGDVVLRYVSYPDGAAGEPFLPGFEGVASPGAADYGLSRFDHIVGNVPELAPAAAYFAGFTGFHEFAEFTTEDVGTAESGLNSMVLANNSENVLLPLNEPVHGTKRRSQIQTFLDHHGGPGVQHMALASDDVLRTLREMQARSAMGGFEFMAPPTSDYYDGVRRRAGDVLTEAQIKECQELGVLVDRDDQGVLLQIFTKPVGDRPTLFLEIIQRIGCMEKDEKGQEYQKGGCGGFGKGNFSQLFKSIEDYEKSLEAKQAAAAAAAQGS
modifications: Zea mays
ON × OFF × kcat ([3]; Megatable 3, shuffled variants): 0.68 | ON × OFF × kcat [3, 5]: 0.68 | kcat ([4]; Megatable 3, shuffled variants): 1.62 s⁻¹ | kcat [4, 6]: 1.62 s⁻¹
